Source: publication PMC6890836, “Exploiting Substrate Promiscuity of Ectoine Hydroxylase for Regio- and Stereoselective Modification of Homoectoine” (Frontiers in Microbiology, 2019)

Experiments:
Experiment in all cases: purified protein
purified protein [1] = substrate: CC1=N[C@H](C(=O)O)CCN1; type: biochemical, Sphingopyxis alaskensis; conditions: 10 mM 2-oxoglutarate, 1 mM FeSO4, 100 mM KCl, 100 mM TES pH 7.5, 15 °C, 1300 U bovine catalase
purified protein [2] = substrate: CC1=NC(C(=O)O)CCCN1; type: biochemical, Sphingopyxis alaskensis; conditions: 10 mM 2-oxoglutarate, 1 mM FeSO4, 100 mM KCl, 100 mM TES pH 7.5, 15 °C, 1300 U bovine catalase
purified protein [3] = substrate: CC1=N[C@H](C(=O)O)CCN1; type: biochemical, Stutzerimonas stutzeri; conditions: 10 mM 2-oxoglutarate, 1 mM FeSO4, 100 mM KCl, 100 mM TES pH 7.5, 35 °C, no catalase
purified protein [4] = substrate: CC1=NC(C(=O)O)CCCN1; type: biochemical, Stutzerimonas stutzeri; conditions: 10 mM 2-oxoglutarate, 1 mM FeSO4, 100 mM KCl, 100 mM TES pH 7.5, 35 °C, no catalase

B1: (Sa)EctD, ectoine hydroxylase from S. alaskensis (Sphingopyxis alaskensis RB2256) (protein)
chain: MQDLYPSRQRADAEMRPRLDPVVHSEWTNDAPISARQAAAFDRDGYIVLEDIFSADEVAFLQKAAGNLLADPAALDADTIVTEPQSNEIRSIFEIHAQSPVMARLAADARLADVARFLLGDEVYIHQSRLNYKPGFKGREFYWHSDFETWHVEDGMPRMRALSMSVLLAENTPHNGPLMVIPGSHRTYLTCVGETPDDHYLSSLKKQEYGVPDEESLAELAHRHGIVAPTGKPGTVILFDCNLMHGSNGNITPFPRANAFLVYNAVSNRLEKPFGVEKPRPWFLARRGEPAALRVERGPLVETVPA
notes: full-length, Strep-tag II fusion (tag kept), from plasmid pMP40 in E. coli BL21(DE3); dimer
Km (purified protein [1]): 800 ± 100 µM | Km (purified protein [2]): 3100 ± 300 µM

B2: (Ps)EctD, ectoine hydroxylase from P. stutzeri A1501 (Stutzerimonas stutzeri A1501) (protein)
chain: MQADLYPSRQEDQPSWQERLDPVVYRSDLENAPIAAELVERFERDGYLVIPNLFSADEVALFRAELERMRQDPAVAGSGKTIKEPDSGAIRSVFAIHKDNELFARVAADERTAGIARFILGGDLYVHQSRMNFKPGFTGKEFYWHSDFETWHIEDGMPRMRCLSCSILLTDNEPHNGPLMLMPGSHKHYVRCVGATPENHYEKSLRKQEIGIPDQNSLSELASRFGIDCATGPAGSVVFFDCNTMHGSNGNITPSARSNLFYVYNHVDNAVQAPFCEQKPRPAFVAERENFKPLDIRPQQYL
notes: full-length, Strep-tag II fusion (tag kept), from plasmid pMP41 in E. coli BL21(DE3); EctD is a dimer in solution
Km (purified protein [3]): 2300 ± 200 µM | Km (purified protein [4]): 2600 ± 200 µM
